Sequences and labels used below:
B1: 12892.13195 (antibody, human IgG1, lambda, L234A L235A)
heavy: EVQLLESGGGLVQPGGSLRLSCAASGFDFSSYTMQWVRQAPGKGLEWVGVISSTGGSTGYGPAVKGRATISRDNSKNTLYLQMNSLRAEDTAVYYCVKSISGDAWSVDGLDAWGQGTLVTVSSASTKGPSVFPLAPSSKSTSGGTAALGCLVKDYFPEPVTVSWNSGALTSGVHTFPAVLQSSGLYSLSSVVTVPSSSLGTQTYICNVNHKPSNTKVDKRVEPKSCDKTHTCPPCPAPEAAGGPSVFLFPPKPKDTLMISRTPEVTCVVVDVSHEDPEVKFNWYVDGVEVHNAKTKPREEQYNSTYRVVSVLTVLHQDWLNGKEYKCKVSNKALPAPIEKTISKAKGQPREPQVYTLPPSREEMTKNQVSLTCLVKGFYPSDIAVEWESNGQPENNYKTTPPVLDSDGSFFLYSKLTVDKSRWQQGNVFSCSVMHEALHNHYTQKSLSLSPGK
light: ELTQDPAVSVALGQTVRITCSGGGSAYGWYQQKPGQAPVTVIYYNNQRPSGIPDRFSGSSSGNTASLTITGAQAEDEADYYCGSYDSSAVGIFGSGTKVTVLGQPKANPTVTLFPPSSEELQANKATLVCLISDFYPGAVTVAWKADGSPVKAGVETTKPSKQSNNKYAASSYLSLTPEQWKSHRSYSCQVTHEGSTVEKTVAPTECS
notes: same as 12892.15378 but without the N-terminal SY of the light chain
B2: 12819.13367 (antibody, human IgG1, lambda, L234A L235A)
heavy: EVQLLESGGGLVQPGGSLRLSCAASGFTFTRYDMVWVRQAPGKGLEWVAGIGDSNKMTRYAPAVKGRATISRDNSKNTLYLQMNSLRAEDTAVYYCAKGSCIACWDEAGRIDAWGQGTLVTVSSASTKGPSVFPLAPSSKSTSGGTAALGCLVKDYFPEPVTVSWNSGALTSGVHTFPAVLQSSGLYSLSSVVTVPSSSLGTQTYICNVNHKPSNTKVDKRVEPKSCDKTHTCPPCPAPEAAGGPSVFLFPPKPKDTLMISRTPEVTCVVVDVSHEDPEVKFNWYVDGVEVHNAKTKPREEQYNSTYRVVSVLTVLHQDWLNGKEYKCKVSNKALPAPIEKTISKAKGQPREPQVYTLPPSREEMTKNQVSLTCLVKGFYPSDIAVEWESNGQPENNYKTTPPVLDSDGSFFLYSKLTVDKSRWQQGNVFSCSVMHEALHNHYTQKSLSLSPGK
light: ELTQDPAVSVALGQTVRITCSGGGSYDGSSYYGWYQQKPGQAPVTVIYNNNNRPSDIPDRFSGSSSGNTASLTITGAQAEDEADYYCGSYDRPETNSDYVGMFGSGTKVTVLGQPKANPTVTLFPPSSEELQANKATLVCLISDFYPGAVTVAWKADGSPVKAGVETTKPSKQSNNKYAASSYLSLTPEQWKSHRSYSCQVTHEGSTVEKTVAPTECS
B3: 13112.13208 (antibody, human IgG1, lambda, L234A L235A)
heavy: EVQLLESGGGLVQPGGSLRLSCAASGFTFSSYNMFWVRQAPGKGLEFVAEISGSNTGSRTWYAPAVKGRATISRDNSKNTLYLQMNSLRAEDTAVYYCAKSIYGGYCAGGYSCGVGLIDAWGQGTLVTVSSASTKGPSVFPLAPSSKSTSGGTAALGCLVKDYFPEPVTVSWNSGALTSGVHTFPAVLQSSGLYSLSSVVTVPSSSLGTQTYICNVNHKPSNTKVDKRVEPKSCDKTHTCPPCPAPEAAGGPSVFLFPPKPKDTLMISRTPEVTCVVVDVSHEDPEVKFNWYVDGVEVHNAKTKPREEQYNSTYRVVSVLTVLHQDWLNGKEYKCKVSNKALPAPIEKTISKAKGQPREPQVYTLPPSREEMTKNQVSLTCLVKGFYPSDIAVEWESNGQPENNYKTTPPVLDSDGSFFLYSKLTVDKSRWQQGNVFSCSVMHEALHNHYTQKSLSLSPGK
light: ELTQDPAVSVALGQTVRITCSGGSSDYYGWFQQKPGQAPVTVIYYNNKRPSDIPDRFSGSSSGNTASLTITGAQAEDEADYYCGNADSSVGVFGSGTKVTVLGQPKANPTVTLFPPSSEELQANKATLVCLISDFYPGAVTVAWKADGSPVKAGVETTKPSKQSNNKYAASSYLSLTPEQWKSHRSYSCQVTHEGSTVEKTVAPTECS
notes: same as 13112.15380 but without the N-terminal SY of the light chain
B4: 12777.15382 (antibody, human IgG1, lambda, L234A L235A)
heavy: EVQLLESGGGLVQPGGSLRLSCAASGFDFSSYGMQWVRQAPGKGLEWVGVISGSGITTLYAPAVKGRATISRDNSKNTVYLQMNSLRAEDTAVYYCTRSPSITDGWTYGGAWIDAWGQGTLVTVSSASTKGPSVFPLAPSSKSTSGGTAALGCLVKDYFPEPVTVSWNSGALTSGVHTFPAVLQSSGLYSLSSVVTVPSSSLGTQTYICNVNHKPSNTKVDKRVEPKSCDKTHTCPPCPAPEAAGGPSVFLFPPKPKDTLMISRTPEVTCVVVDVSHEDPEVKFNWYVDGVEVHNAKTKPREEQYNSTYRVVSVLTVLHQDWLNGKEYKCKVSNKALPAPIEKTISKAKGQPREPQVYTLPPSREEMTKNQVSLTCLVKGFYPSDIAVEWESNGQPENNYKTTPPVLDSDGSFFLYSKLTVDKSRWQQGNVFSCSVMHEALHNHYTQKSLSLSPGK
light: SYELTQDPAVSVALGQTVRITCSGGDGSYGWFQQKPGQAPVTVIYDNDNRPSDIPDRFSGSSSGNTASLTITGAQAEDEADYYCGNADLSGGIFGSGTKVTVLGQPKANPTVTLFPPSSEELQANKATLVCLISDFYPGAVTVAWKADGSPVKAGVETTKPSKQSNNKYAASSYLSLTPEQWKSHRSYSCQVTHEGSTVEKTVAPTECS
notes: humanized, IgG1 LALA, lambda
B5: 12748.15381 (antibody, human IgG1, lambda, L234A L235A, V domains shown)
VH: EVQLLESGGGLVQPGGSLRLSCAASGFTFSDYAMNWVRQAPGKGLEWVAGIGNDGSYTNYGAAVKGRATISRDNSKNTLYLQMNSLRAEDTAVYYCASDIRSRNDCSYFLGGCSSGFIDVWGQGTLVTVSS
VL: SYELTQDPAVSVALGQTVRITCSGGSSYSYGWFQQKPGQAPVTVIYESNNRPSDIPDRFSGSSSGNTASLTITGAQAEDEADYYCGNADSSSGIFGSGTKVTVLG
notes: humanized, IgG1 LALA, lambda
B6: 12748.16124 (antibody, human IgG1, lambda, L234A L235A, V domains shown)
VH: B5 VH
VL: SYELTQPPSVSVSPGQTARITCSGGSSYSYGWFQQKPGQAPVTVIYESNNRPSDIPERFSGSSSGTTVTLTISGVQAEDEADYYCGNADSSSGIFGSGTKVTVLG
notes: alternative germline VL variant of 12748.15381; IgG1 LALA, lambda
B7: 12892.15378 (antibody, human IgG1, lambda, L234A L235A)
heavy: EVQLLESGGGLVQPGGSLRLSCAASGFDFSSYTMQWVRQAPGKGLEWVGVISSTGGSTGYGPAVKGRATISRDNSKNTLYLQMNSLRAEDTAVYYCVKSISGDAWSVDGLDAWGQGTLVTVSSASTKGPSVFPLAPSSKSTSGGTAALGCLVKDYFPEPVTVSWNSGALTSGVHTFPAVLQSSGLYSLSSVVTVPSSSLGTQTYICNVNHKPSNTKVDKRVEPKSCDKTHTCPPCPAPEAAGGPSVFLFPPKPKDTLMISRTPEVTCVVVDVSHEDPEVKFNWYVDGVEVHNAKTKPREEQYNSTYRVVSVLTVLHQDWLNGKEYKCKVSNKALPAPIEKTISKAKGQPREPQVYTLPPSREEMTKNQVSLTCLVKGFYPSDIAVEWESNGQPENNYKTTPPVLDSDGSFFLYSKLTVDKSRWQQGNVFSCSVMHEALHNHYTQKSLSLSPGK
light: SYELTQDPAVSVALGQTVRITCSGGGSAYGWYQQKPGQAPVTVIYYNNQRPSGIPDRFSGSSSGNTASLTITGAQAEDEADYYCGSYDSSAVGIFGSGTKVTVLGQPKANPTVTLFPPSSEELQANKATLVCLISDFYPGAVTVAWKADGSPVKAGVETTKPSKQSNNKYAASSYLSLTPEQWKSHRSYSCQVTHEGSTVEKTVAPTECS
notes: humanized, IgG1 LALA, lambda
B8: 12796.15376 (antibody, human IgG1, lambda, L234A L235A, V domains shown)
VH: EVQLLESGGGLVQPGGSLRLSCAASGFDFSSYTMQWVRQAPGKGLEWVGVISSTGGSTGYGPAVKGRATISRDNSKNTLYLQMNSLRAEDTAVYYCVKSVSGDAWSVDGLDAWGQGTLVTVSS
VL: SYELTQDPAVSVALGQTVRITCSGGGSAYGWYQQKPGQAPVTVIYYNNQRPSDIPDRFSGSSSGNTASLTITGAQAEDEADYYCGSYDSSAVGIFGSGTKVTVLG
notes: humanized, IgG1 LALA, lambda
B9: 12865.15377 (antibody, human IgG1, lambda, L234A L235A, V domains shown)
VH: EVQLLESGGGLVQPGGSLRLSCAASGFDFSDHGMQWVRQAPGKGLEYVGVIDTTGRYTYYAPAVKGRATISRDNSKNTLYLQMNSLRAEDTAVYYCAKTTCVGGYLCNTVGSIDAWGQGTLVTVSS
VL: SYELTQDPAVSVALGQTVRITCSGGGSSSYYGWYQQKPGQAPVTVIYDDTNRPSGIPDRFSGSSSGNTASLTITGAQAEDEADYYCGGYEGSSHAGIFGSGTKVTVLG
notes: humanized, IgG1 LALA, lambda
B10: 13112.15380 (antibody, human IgG1, lambda, L234A L235A)
heavy: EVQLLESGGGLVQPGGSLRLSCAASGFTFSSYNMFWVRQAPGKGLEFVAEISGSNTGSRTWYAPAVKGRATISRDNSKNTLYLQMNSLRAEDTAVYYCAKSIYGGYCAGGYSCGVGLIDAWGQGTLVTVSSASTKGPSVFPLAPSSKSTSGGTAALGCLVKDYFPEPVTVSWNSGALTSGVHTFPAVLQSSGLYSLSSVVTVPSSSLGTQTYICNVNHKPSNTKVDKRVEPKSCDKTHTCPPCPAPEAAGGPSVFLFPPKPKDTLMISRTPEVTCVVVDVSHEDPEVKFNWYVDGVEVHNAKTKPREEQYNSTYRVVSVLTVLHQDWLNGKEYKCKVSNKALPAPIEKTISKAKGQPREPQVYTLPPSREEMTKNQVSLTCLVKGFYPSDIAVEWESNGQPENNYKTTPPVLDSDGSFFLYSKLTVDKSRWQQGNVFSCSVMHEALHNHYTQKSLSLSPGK
light: SYELTQDPAVSVALGQTVRITCSGGSSDYYGWFQQKPGQAPVTVIYYNNKRPSDIPDRFSGSSSGNTASLTITGAQAEDEADYYCGNADSSVGVFGSGTKVTVLGQPKANPTVTLFPPSSEELQANKATLVCLISDFYPGAVTVAWKADGSPVKAGVETTKPSKQSNNKYAASSYLSLTPEQWKSHRSYSCQVTHEGSTVEKTVAPTECS
notes: humanized, IgG1 LALA, lambda; whole antibody
B11: 12760.15375 (antibody, human IgG1, lambda, L234A L235A, V domains shown)
VH: EVQLLESGGGLVQPGGSLRLSCAASGFTFSTFNMVWVRQAPGKGLEYVAEISSDGSFTWYATAVKGRATISRDNSKNTVYLQMNSLRAEDTAVYYCAKSDCSSSYYGYSCIGIIDAWGQGTLVTVSS
VL: SYELTQDPAVSVALGQTVRITCSGGISDDGSYYYGWFQQKPGQAPVTVIYINDRRPSNIPDRFSGSSSGNTASLTITGAQAEDEADYYCGSYDSSAGVGIFGSGTKVTVLG
notes: humanized, IgG1 LALA, lambda
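For % of all cells in Q1 of panel PD-L1 binding (PD-L1+, CFSE- human PD1 cells) in this document: human PD-1 CHO-S cells mixed with CFSE-labelled cyno PD-1 CHO-S cells, antibody binding read with APC anti-human IgG light chain detection.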
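For % of all cells in Q4 of panel PD-L1 binding (PD-L1-, CFSE- human PD1 cells) in this document: human PD-1 CHO-S cells mixed with CFSE-labelled cyno PD-1 CHO-S cells, antibody binding read with APC anti-human IgG light chain detection.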
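For % of human PD1-gated cells in Q1 (mAb+, PD-L1-) in this document: human PD-1 CHO-S cells mixed with CFSE-labelled cyno PD-1 CHO-S cells, antibody binding read with APC anti-human IgG light chain detection.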
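For % of human PD1-gated cells in Q2 (mAb+, PD-L1+) in this document: human PD-1 CHO-S cells mixed with CFSE-labelled cyno PD-1 CHO-S cells, antibody binding read with APC anti-human IgG light chain detection.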

T5 sequence (Q15116 25-170): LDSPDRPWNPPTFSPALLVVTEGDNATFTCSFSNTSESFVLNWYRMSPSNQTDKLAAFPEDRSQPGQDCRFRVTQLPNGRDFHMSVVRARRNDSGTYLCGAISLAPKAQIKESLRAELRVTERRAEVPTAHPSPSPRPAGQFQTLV

For one experiment, the target named is T1, human PD-1 expressed on CHO-S cells (human, UniProt Q15116 25-288).
T1 construct: also called PD-1-expressing cells
T1 sequence (Q15116 25-288 limits assumed): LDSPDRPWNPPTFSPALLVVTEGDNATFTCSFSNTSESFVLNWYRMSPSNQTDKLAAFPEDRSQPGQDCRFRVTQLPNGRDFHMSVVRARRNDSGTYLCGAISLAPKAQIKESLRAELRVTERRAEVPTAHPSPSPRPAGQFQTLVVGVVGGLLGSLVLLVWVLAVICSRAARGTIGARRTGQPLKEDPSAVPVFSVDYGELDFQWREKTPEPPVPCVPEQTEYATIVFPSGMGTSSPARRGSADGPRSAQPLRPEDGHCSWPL
The experiment in a line: flow cytometry, PD-1-transfected CHO-S cells; mAb 10 ug/ml, then R-PE PD-L1-Fc as blocked ligand. A general note: A flow cytometer gives signals particle by particle.
For the molecule B1, the “% of all cells in Q1 of panel PD-L1 binding (PD-L1+, CFSE- human PD1 cells)” value was 0.59%; the “% of all cells in Q4 of panel PD-L1 binding (PD-L1-, CFSE- human PD1 cells)” value came out at 43.8%; the “% of human PD1-gated cells in Q1 (mAb+, PD-L1-)” value was 56.1%; the “% of human PD1-gated cells in Q2 (mAb+, PD-L1+)” value came out at 5.3%. The “% of human PD1-gated cells in Q3 (mAb-, PD-L1+)” value was 0.45% and the “% of human PD1-gated cells in Q4 (mAb-, PD-L1-)” value came out at 38.2%.

With B2, the “% of all cells in Q1 of panel PD-L1 binding (PD-L1+, CFSE- human PD1 cells)” value was 0.73%; the “% of all cells in Q4 of panel PD-L1 binding (PD-L1-, CFSE- human PD1 cells)” value turned out to be 47.6%; the “% of human PD1-gated cells in Q1 (mAb+, PD-L1-)” value came to 58.8%; the “% of human PD1-gated cells in Q2 (mAb+, PD-L1+)” value was found to be 5.85%. For the same molecule, the “% of human PD1-gated cells in Q3 (mAb-, PD-L1+)” value came to 0.37% and the “% of human PD1-gated cells in Q4 (mAb-, PD-L1-)” value is 35%.

The next experiment has as its target T2, cyno PD1 (limits assumed).
T2 construct: also called cynomolgus PD-1 expressed on CFSE-stained CHO-S cells
T2 receptor: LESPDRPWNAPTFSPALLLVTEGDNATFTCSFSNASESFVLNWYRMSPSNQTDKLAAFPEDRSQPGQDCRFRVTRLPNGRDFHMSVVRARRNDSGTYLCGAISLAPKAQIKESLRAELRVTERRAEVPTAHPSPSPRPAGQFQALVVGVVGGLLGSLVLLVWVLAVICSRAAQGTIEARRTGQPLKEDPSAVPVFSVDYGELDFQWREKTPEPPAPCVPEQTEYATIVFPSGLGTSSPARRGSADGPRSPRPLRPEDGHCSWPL
Described as above.
Turning to B1, the “% of all cells in Q3 of panel PD-L1 binding (PD-L1-, CFSE+ cyno PD1 cells)” value is 55.2%; the “% of cyno PD1-gated cells in Q1 (mAb+, PD-L1-)” value amounted to 42.9%; the “% of cyno PD1-gated cells in Q2 (mAb+, PD-L1+)” value amounted to 3.36%; the “% of cyno PD1-gated cells in Q3 (mAb-, PD-L1+)” value was 1.28%. The “% of cyno PD1-gated cells in Q4 (mAb-, PD-L1-)” value worked out at 52.5%.

B2: the “% of all cells in Q3 of panel PD-L1 binding (PD-L1-, CFSE+ cyno PD1 cells)” value was determined as 51.1%; the “% of cyno PD1-gated cells in Q1 (mAb+, PD-L1-)” value came out at 47.8%; the “% of cyno PD1-gated cells in Q2 (mAb+, PD-L1+)” value is 3.87%; the “% of cyno PD1-gated cells in Q3 (mAb-, PD-L1+)” value stood at 0.99%. Also, the “% of cyno PD1-gated cells in Q4 (mAb-, PD-L1-)” value worked out at 47.3%.

For another experiment, the target named is T3, human PD-1 Fc fusion protein (Sino Biological) (human, UniProt Q15116 25-167, limits assumed).
T3 construct: bought; not shown: Fc of the commercial fusion protein
T3 sequence (Q15116 25-167 limits assumed): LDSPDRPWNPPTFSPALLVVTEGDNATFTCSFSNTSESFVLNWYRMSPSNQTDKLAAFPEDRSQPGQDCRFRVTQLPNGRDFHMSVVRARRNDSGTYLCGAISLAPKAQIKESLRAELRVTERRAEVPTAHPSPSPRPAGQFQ
The experiment in a line: BLI, PD-1-Fc saturated with 10 ug/ml antibody, then PD-L2-Fc.
In the case of B1, the “% Blocking” value was found to be 77%.

B2: the “% Blocking” value worked out at 94%.

Consider B3, for which the “% Blocking” value was 27%.

Another experiment addresses T3, human PD-1 Fc fusion protein (Sino …). The experiment in a line: BLI, PD-1-Fc saturated with 10 ug/ml antibody, then PD-L1-Fc.
As to B1, the “% Blocking” value was found to be 88%.

Regarding B2, the “% Blocking” value is 94%.

On to B3, for which the “% Blocking” value was determined as 53%.

Another experiment addresses T1, human PD-1 expressed on CHO-S cells. The experiment in a line: flow cytometry competition, 10 ug/ml antibody vs R-PE PD-L1-Fc on PD-1 CHO-S cells.
Turning to B1, the “% PD-L1 binding inhibition” value was 88%.

On to B2, for which the “% PD-L1 binding inhibition” value was determined as 87%.

As for B3, the “% PD-L1 binding inhibition” value was determined as 5%.

A further experiment deals with T4, His-tagged cynomolgus PD-1 ECD (cynomolgus (Macaca fascicularis), UniProt Q15116 25-170 (human entry)).
T4 construct: bought from Acro Biosystems; not shown: His tag
T4 chain: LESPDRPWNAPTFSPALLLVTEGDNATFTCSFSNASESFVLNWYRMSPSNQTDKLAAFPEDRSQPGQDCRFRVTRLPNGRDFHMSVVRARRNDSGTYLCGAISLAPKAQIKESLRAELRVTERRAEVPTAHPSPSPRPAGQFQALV
The experiment in a line: SPR, IgG captured, monovalent PD-1 ECD analyte.
Consider B4, for which the Kd (as a rule, the free concentration of one partner at which half of the binding sites on the other are occupied at equilibrium, for simple one-to-one binding) stood at 681 pM; the koff (as a rule, a measure of how fast the partners let go of each other) stood at 0.00017 s⁻¹; the kon (commonly a measure of how fast the partners come together) was determined as 250000 M⁻¹ s⁻¹.

In turn, B5 displayed a Kd of 101 pM, a koff of 0.00047 s⁻¹ and a kon of 4.6e+06 M⁻¹ s⁻¹.

Regarding B6, the Kd stood at 81 pM, the off-rate (koff) is 0.00039 s⁻¹ and the kon came out at 4.8e+06 M⁻¹ s⁻¹.

The molecule B7 showed a Kd of 2340 pM, a koff of 0.00069 s⁻¹ and a kon of 290000 M⁻¹ s⁻¹.

In turn, B8 returned a Kd of 2220 pM, a koff of 0.0007 s⁻¹ and a kon of 320000 M⁻¹ s⁻¹.

Consider B9, for which the affinity, expressed as Kd, was 738 pM; the koff came out at 0.00038 s⁻¹; the kon was determined as 510000 M⁻¹ s⁻¹.

Regarding B10, the Kd was determined as 452 pM, the off-rate constant (koff) worked out at 0.0011 s⁻¹ and the on-rate constant (kon) was 2.5e+06 M⁻¹ s⁻¹.

B11 gave a Kd of 6940 pM, a koff of 0.0072 s⁻¹ and an on-rate constant (kon) of 1e+06 M⁻¹ s⁻¹.

Another experiment has as its target T5, His-tagged human PD-1 ECD (human, UniProt Q15116 25-170).
T5 construct: bought from Acro Biosystems; not shown: His tag
The experiment in a line: SPR, IgG captured, monovalent PD-1 ECD analyte. Background: SPR reads the build-up and loss of mass on a sensor chip optically.
In the case of B4, binding was characterised by a dissociation constant (Kd) of 337 pM, the koff was 8e-05 s⁻¹ and the kon turned out to be 240000 M⁻¹ s⁻¹.

Molecule B5 showed a Kd of 54 pM, a koff of 0.00017 s⁻¹ and a kon of 3.2e+06 M⁻¹ s⁻¹.

The molecule B6 came in with a Kd of 47 pM, a koff of 0.00016 s⁻¹ and an on-rate (kon) of 3.4e+06 M⁻¹ s⁻¹.

With B7, binding was put at a Kd of 737 pM, the koff is 0.00034 s⁻¹ and the kon stood at 460000 M⁻¹ s⁻¹.

On to B8, for which binding was characterised by a dissociation constant (Kd) of 542 pM, the koff came to 0.00038 s⁻¹ and the kon amounted to 710000 M⁻¹ s⁻¹.

Regarding B9, the Kd turned out to be 558 pM, the off-rate constant (koff) came out at 0.00023 s⁻¹ and the kon was determined as 420000 M⁻¹ s⁻¹.

For B10, the Kd is 60 pM, the koff stood at 6.9e-05 s⁻¹ and the kon is 1.2e+06 M⁻¹ s⁻¹.

In turn, B11 showed a Kd of 112 pM, a koff of 0.00014 s⁻¹ and a kon of 1.2e+06 M⁻¹ s⁻¹.
